One block for each substance: values may come before it.
Tests used:
[1] = target: Fcγ receptors; assay: cell-based or functional assay
[2] = target: RhD antigen on RhD+ red blood cells (UniProt Q02161); assay: flow cytometry on RhD+ red blood cells
[3] = target: Recombinant soluble human FcRn (human) (UniProt P55899); assay: SPR (BIAcore X100), FcRn immobilised, pH 6.0
[4] = target: Recombinant soluble human FcRn (human) (UniProt P55899); assay: SPR, FcRn immobilised, pH 6.0; reference R593
[5] = target: FcRn-p3 (fusion protein of β2 microglobulin chain and FcRn α-chain fused to bacteriophage protein p3 and CVDE protein) (UniProt P61769); assay: ELISA, purified IgG from YB2/0, vs R593 IgG-WT
[6] = target: FcγRI (R&D system) (human) (UniProt P12314); assay: ELISA, purified IgG from YB2/0, vs R593 IgG-WT
Sequence of FcγRI (R&D system) (human) (P12314 16-288 limits assumed): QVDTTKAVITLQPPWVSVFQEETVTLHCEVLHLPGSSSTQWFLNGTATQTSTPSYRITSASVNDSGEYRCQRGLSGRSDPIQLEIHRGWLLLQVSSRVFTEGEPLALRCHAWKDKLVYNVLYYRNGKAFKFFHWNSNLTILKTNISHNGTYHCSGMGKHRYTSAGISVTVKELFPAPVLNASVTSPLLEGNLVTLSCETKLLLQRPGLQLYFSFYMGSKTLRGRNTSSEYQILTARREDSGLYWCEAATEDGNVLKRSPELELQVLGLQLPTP

[7] = target: FcγRIIIaF158 (PX Therapeutics, His-tagged) (human) (UniProt P08637); assay: ELISA, purified IgG from YB2/0, vs R593 IgG-WT
Sequence of FcγRIIIaF158 (PX Therapeutics, His-tagged) (human) (P08637 17-208 limits assumed): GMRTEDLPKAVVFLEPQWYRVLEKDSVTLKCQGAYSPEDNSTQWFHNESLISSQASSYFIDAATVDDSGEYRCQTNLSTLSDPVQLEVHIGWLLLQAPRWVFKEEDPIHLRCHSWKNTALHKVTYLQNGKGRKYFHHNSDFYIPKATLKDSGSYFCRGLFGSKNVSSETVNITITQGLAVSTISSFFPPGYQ

[8] = target: FcγRIIIaV158 (R&D system) (human) (UniProt P08637); assay: ELISA, purified IgG from YB2/0, vs R593 IgG-WT
Sequence of FcγRIIIaV158 (R&D system) (human) (P08637 17-208 F176V limits assumed): as the sequence (P08637 17-208 limits assumed) above, with F160V counted along it

[9] = target: FcγRIIaH131 (PX Therapeutics, His-tagged) (human) (UniProt P12318); assay: ELISA, purified IgG from YB2/0, vs R593 IgG-WT
Sequence of FcγRIIaH131 (PX Therapeutics, His-tagged) (human) (P12318 34-217 limits assumed): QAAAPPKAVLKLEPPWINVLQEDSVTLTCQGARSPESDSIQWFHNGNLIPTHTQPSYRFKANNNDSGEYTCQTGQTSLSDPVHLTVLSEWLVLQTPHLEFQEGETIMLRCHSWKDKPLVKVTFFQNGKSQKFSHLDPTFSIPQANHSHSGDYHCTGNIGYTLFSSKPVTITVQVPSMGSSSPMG

[10] = target: FcγRIIaR131 (R&D system) (human) (UniProt P12318); assay: ELISA, purified IgG from YB2/0, vs R593 IgG-WT
Sequence of FcγRIIaR131 (R&D system) (human) (P12318 36-218 H167R limits assumed): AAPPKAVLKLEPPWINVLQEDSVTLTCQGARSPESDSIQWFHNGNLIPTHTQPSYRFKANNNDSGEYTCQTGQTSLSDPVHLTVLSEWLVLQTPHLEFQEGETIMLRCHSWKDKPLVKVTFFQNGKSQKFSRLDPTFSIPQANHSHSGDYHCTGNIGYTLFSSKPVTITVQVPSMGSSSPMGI

[11] = target: FcγRIIb (R&D system) (human) (UniProt P31994); assay: ELISA, purified IgG from YB2/0, vs R593 IgG-WT
Sequence of FcγRIIb (R&D system) (human) (P31994 46-217 limits assumed): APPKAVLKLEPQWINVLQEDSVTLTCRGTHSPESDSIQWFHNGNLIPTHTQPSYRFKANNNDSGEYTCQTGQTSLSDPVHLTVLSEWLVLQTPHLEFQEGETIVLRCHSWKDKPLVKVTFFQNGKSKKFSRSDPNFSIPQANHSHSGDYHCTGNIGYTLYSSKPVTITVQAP

[12] = target: FcRn-p3 (fusion protein of β2 microglobulin chain and FcRn α-chain fused to bacteriophage protein p3 and CVDE protein) (UniProt P61769); assay: ELISA, purified IgG from YB2/0, vs parent R593-256N/378V/383N/434Y
[13] = target: FcγRI (R&D system) (human) (UniProt P12314); assay: as above
[14] = target: FcγRIIIaF158 (PX Therapeutics, His-tagged) (human) (UniProt P08637); assay: as above
[15] = target: FcγRIIIaV158 (R&D system) (human) (UniProt P08637); assay: as above
[16] = target: FcγRIIaH131 (PX Therapeutics, His-tagged) (human) (UniProt P12318); assay: as above
[17] = target: FcγRIIaR131 (R&D system) (human) (UniProt P12318); assay: as above
[18] = target: FcγRIIb (R&D system) (human) (UniProt P31994); assay: as above
[19] = target: T1, CD20 antigen on Raji lymphoblastoid B cells (UniProt P11836); assay: flow cytometry on Raji cells
T1 sequence (looked up): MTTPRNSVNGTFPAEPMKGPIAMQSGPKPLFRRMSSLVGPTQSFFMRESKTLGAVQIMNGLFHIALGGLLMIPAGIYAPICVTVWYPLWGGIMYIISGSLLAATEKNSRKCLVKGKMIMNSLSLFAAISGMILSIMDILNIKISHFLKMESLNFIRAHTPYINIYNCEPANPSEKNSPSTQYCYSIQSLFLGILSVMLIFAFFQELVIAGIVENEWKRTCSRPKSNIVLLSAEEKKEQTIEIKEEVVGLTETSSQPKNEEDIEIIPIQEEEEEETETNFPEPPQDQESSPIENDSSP

[20] = target: C1q complement (Calbiochem) (UniProt P02745); assay: ELISA, 293-F supernatant, vs R603 IgG-WT
Sequence of C1q complement (Calbiochem) (P02745 23-245, chain 1 of 3): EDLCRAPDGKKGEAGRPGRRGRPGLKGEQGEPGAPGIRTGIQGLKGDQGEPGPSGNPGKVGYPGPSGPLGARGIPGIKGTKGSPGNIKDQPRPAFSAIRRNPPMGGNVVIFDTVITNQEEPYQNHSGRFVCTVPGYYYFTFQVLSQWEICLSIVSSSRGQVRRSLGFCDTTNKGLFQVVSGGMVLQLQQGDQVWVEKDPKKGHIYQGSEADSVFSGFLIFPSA
Sequence of C1q complement (Calbiochem) (P02746 28-253, chain 2 of 3, further chain): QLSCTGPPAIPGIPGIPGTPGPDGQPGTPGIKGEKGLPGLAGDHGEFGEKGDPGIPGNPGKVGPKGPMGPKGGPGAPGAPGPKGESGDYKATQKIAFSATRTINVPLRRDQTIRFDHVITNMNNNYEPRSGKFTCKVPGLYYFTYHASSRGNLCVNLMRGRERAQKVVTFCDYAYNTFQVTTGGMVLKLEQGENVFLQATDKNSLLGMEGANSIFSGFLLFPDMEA
Sequence of C1q complement (Calbiochem) (P02747 29-245, chain 3 of 3, further chain): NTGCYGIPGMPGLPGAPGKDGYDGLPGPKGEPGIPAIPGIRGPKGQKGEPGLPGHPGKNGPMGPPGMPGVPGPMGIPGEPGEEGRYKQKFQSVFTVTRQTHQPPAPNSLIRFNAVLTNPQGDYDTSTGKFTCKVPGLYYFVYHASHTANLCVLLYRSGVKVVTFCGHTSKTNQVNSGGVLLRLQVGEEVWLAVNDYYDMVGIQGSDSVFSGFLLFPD

[21] = target: FcRn-p3 (fusion protein of β2 microglobulin chain and FcRn α-chain fused to bacteriophage protein p3 and CVDE protein) (UniProt P61769); assay: ELISA, 293-F supernatant, vs R603 IgG-WT
[22] = target: FcγRI (R&D system) (human) (UniProt P12314); assay: ELISA, 293-F supernatant, vs R603 IgG-WT
[23] = target: FcγRIIIaV158 (R&D system) (human) (UniProt P08637); assay: ELISA, 293-F supernatant, vs R603 IgG-WT
[24] = target: FcγRIIaR131 (R&D system) (human) (UniProt P12318); assay: ELISA, 293-F supernatant, vs R603 IgG-WT
[25] = target: FcγRIIb (R&D system) (human) (UniProt P31994); assay: ELISA, 293-F supernatant, vs R603 IgG-WT
[26] = target: Recombinant soluble human FcRn (human) (UniProt P55899); assay: SPR, FcRn immobilised, pH 6.0; reference R603
[27] = target: FcRn-p3 (fusion protein of β2 microglobulin chain and FcRn α-chain fused to bacteriophage protein p3 and CVDE protein) (UniProt P61769); assay: ELISA, purified IgG from YB2/0, vs R603 IgG-WT
[28] = target: FcγRI (R&D system) (human) (UniProt P12314); assay: ELISA, purified IgG from YB2/0, vs R603 IgG-WT
[29] = target: FcγRIIIaF158 (PX Therapeutics, His-tagged) (human) (UniProt P08637); assay: ELISA, purified IgG from YB2/0, vs R603 IgG-WT
[30] = target: FcγRIIIaV158 (R&D system) (human) (UniProt P08637); assay: ELISA, purified IgG from YB2/0, vs R603 IgG-WT
[31] = target: FcγRIIaH131 (PX Therapeutics, His-tagged) (human) (UniProt P12318); assay: ELISA, purified IgG from YB2/0, vs R603 IgG-WT
[32] = target: FcγRIIaR131 (R&D system) (human) (UniProt P12318); assay: ELISA, purified IgG from YB2/0, vs R603 IgG-WT
[33] = target: FcγRIIb (R&D system) (human) (UniProt P31994); assay: ELISA, purified IgG from YB2/0, vs R603 IgG-WT
[34] = target: C1q complement (Calbiochem) (UniProt P02745); assay: ELISA, 293-F supernatant, vs parent 259I/315D/434Y
[35] = target: FcRn-p3 (fusion protein of β2 microglobulin chain and FcRn α-chain fused to bacteriophage protein p3 and CVDE protein) (UniProt P61769); assay: ELISA, 293-F supernatant, vs parent 259I/315D/434Y
[36] = target: FcγRI (R&D system) (human) (UniProt P12314); assay: ELISA, 293-F supernatant, vs parent 259I/315D/434Y
[37] = target: FcγRIIIaV158 (R&D system) (human) (UniProt P08637); assay: ELISA, 293-F supernatant, vs parent 259I/315D/434Y
[38] = target: FcγRIIaR131 (R&D system) (human) (UniProt P12318); assay: ELISA, 293-F supernatant, vs parent 259I/315D/434Y
[39] = target: FcγRIIb (R&D system) (human) (UniProt P31994); assay: ELISA, 293-F supernatant, vs parent 259I/315D/434Y
[40] = target: FcRn-p3 (fusion protein of β2 microglobulin chain and FcRn α-chain fused to bacteriophage protein p3 and CVDE protein) (UniProt P61769); assay: ELISA, purified IgG from YB2/0, vs parent R603-259I/315D/434Y
[41] = target: FcγRI (R&D system) (human) (UniProt P12314); assay: as above
[42] = target: FcγRIIIaF158 (PX Therapeutics, His-tagged) (human) (UniProt P08637); assay: as above
[43] = target: FcγRIIIaV158 (R&D system) (human) (UniProt P08637); assay: as above
[44] = target: FcγRIIaH131 (PX Therapeutics, His-tagged) (human) (UniProt P12318); assay: as above
[45] = target: FcγRIIaR131 (R&D system) (human) (UniProt P12318); assay: as above
[46] = target: FcγRIIb (R&D system) (human) (UniProt P31994); assay: as above
[47] = target: FcRn-p3 (fusion protein of β2 microglobulin chain and FcRn α-chain fused to bacteriophage protein p3 and CVDE protein) (UniProt P61769); assay: ELISA, purified IgG from YB2/0, vs parent R593-259I/315D/434Y
[48] = target: FcγRI (R&D system) (human) (UniProt P12314); assay: as above
[49] = target: FcγRIIIaF158 (PX Therapeutics, His-tagged) (human) (UniProt P08637); assay: as above
[50] = target: FcγRIIIaV158 (R&D system) (human) (UniProt P08637); assay: as above
[51] = target: FcγRIIaH131 (PX Therapeutics, His-tagged) (human) (UniProt P12318); assay: as above
[52] = target: FcγRIIaR131 (R&D system) (human) (UniProt P12318); assay: as above
[53] = target: FcγRIIb (R&D system) (human) (UniProt P31994); assay: as above

Sequence of RhD antigen on RhD+ red blood cells (Q02161 2-417 limits assumed): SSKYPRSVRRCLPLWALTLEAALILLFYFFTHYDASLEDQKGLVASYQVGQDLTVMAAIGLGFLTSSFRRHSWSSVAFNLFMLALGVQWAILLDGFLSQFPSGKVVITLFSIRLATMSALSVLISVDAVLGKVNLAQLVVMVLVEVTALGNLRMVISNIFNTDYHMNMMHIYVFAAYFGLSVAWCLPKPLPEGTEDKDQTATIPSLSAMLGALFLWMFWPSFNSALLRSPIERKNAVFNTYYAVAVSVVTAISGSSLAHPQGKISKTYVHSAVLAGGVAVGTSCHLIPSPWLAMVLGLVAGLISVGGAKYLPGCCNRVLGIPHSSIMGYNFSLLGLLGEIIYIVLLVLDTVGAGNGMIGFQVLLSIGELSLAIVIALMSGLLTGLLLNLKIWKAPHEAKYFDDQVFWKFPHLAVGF

ADCC EC50 (ng/ml), lysis of RhD+ red cells [1]: 75.9 ng/mL
ADCC Max. Lysis (%) [1]: 6%
Ag binding MFI (Arbitrary Unit) [2]: 44.7
Kd [3]: 4.23 nM
Ratio WT/IgG (KD) [4]: 44.9
Ratio/IgG-WT [5]: 7.48
Ratio/IgG-WT [6]: 0.12
Ratio/IgG-WT [7]: 0.1
Ratio/IgG-WT [8]: 0.1
Ratio/IgG-WT [9]: 0.17
Ratio/IgG-WT [10]: 0.17
Ratio/IgG-WT [11]: 0.27
ratio to the IgG1 without 294Del [12]: 1
ratio to the IgG1 without 294Del [13]: 0.05
ratio to the IgG1 without 294Del [14]: 0.11
ratio to the IgG1 without 294Del [15]: 0.1
ratio to the IgG1 without 294Del [16]: 0.17
ratio to the IgG1 without 294Del [17]: 0.16
ratio to the IgG1 without 294Del [18]: 0.17
Substance: R593 anti-RhD+ IgG1 variant 256N/294Del/378V/383N/434Y (antibody)

Ag binding MFI (Arbitrary Unit) [19]: 96
Ratio/IgG-WT [20]: 0.13
Ratio/IgG-WT [21]: 2.87
Ratio/IgG-WT [22]: 0.34
Ratio/IgG-WT [23]: 0.02
Ratio/IgG-WT [24]: 0.01
Ratio/IgG-WT [25]: 0.01
Kd [3]: 28 nM
Ratio WT/IgG (KD) [26]: 3.54
Ratio/IgG-WT [27]: 5.97
Ratio/IgG-WT [28]: 0.1
Ratio/IgG-WT [29]: 0.08
Ratio/IgG-WT [30]: 0.05
Ratio/IgG-WT [31]: 0.08
Ratio/IgG-WT [32]: 0.07
Ratio/IgG-WT [33]: 0.41
ratio to the IgG1 without 294Del [34]: 0.1
ratio to the IgG1 without 294Del [35]: 0.66
ratio to the IgG1 without 294Del [36]: 0.41
ratio to the IgG1 without 294Del [37]: 0.02
ratio to the IgG1 without 294Del [38]: 0.01
ratio to the IgG1 without 294Del [39]: 0.01
ratio to the IgG1 without 294Del [40]: 0.86
ratio to the IgG1 without 294Del [41]: 0.09
ratio to the IgG1 without 294Del [42]: 0.07
ratio to the IgG1 without 294Del [43]: 0.05
ratio to the IgG1 without 294Del [44]: 0.08
ratio to the IgG1 without 294Del [45]: 0.06
ratio to the IgG1 without 294Del [46]: 0.27
Substance: R603 anti-CD20 IgG1 variant 259I/294Del/315D/434Y (antibody)

ADCC EC50 (ng/ml), lysis of RhD+ red cells [1]: 75.9 ng/mL
ADCC Max. Lysis (%) [1]: 4%
Ag binding MFI (Arbitrary Unit) [2]: 47.9
Kd [3]: 20.2 nM
Ratio WT/IgG (KD) [4]: 9.41
Ratio/IgG-WT [5]: 7.19
Ratio/IgG-WT [6]: 0.13
Ratio/IgG-WT [7]: 0.07
Ratio/IgG-WT [8]: 0.07
Ratio/IgG-WT [9]: 0.1
Ratio/IgG-WT [10]: 0.12
Ratio/IgG-WT [11]: 0.18
ratio to the IgG1 without 294Del [47]: 0.91
ratio to the IgG1 without 294Del [48]: 0.12
ratio to the IgG1 without 294Del [49]: 0.07
ratio to the IgG1 without 294Del [50]: 0.07
ratio to the IgG1 without 294Del [51]: 0.11
ratio to the IgG1 without 294Del [52]: 0.11
ratio to the IgG1 without 294Del [53]: 0.13
Substance: R593 anti-RhD+ IgG1 variant 259I/294Del/315D/434Y (antibody)

From patent publication US20140378663A1
